Measurements reported in patent US20190031771A1 (University of Pennsylvania, published 2019).

What was measured:
human ADAMTS13 [1] = molecular target: T1, human ADAMTS13 (human, UniProt Q76LX8 75-1427); assay: cell-based or functional assay
T1 sequence (looked up): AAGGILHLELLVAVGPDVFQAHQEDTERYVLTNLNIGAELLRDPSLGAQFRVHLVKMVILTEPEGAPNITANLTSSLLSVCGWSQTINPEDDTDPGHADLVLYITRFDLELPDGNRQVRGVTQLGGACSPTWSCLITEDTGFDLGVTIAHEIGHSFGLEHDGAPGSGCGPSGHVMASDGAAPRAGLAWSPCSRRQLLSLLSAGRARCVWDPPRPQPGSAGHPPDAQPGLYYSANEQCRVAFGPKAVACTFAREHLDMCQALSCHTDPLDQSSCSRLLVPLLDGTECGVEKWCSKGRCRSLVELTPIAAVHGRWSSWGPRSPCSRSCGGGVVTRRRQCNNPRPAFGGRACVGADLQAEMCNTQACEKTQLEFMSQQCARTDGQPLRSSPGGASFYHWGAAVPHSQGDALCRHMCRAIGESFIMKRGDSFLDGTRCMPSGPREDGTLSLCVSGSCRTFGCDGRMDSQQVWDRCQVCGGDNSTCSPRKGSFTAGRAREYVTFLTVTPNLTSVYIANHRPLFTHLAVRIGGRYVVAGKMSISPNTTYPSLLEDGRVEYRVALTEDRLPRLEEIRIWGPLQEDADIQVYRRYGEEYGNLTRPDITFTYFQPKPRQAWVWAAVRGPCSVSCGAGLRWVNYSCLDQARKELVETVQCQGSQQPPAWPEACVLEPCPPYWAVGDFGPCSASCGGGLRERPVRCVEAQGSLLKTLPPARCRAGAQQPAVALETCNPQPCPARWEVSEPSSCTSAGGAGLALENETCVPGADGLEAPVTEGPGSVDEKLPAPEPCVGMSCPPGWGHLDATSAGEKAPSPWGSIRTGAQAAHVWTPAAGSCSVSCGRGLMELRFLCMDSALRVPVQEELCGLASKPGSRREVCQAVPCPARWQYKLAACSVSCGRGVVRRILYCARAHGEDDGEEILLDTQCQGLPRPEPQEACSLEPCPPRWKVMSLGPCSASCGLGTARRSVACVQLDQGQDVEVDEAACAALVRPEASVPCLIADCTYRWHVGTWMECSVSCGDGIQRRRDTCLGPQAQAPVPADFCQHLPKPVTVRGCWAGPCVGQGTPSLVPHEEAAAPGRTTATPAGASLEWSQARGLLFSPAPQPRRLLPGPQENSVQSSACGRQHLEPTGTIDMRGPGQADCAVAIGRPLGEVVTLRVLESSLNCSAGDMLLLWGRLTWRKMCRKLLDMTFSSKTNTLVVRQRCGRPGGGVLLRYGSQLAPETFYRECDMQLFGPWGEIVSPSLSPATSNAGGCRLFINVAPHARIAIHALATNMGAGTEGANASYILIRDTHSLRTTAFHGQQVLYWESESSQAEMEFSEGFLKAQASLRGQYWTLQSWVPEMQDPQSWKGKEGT

[2] = molecular target: T2, hemagglutinin ectodomain of influenza virus H1/PR/8/34 (influenza virus H1/PR/8/34, UniProt P03452 18-528); assay: immunoassay or flow cytometry
T2 construct: extracellular domain; also called HA H1/PR/8/34
T2 sequence (P03452 18-528): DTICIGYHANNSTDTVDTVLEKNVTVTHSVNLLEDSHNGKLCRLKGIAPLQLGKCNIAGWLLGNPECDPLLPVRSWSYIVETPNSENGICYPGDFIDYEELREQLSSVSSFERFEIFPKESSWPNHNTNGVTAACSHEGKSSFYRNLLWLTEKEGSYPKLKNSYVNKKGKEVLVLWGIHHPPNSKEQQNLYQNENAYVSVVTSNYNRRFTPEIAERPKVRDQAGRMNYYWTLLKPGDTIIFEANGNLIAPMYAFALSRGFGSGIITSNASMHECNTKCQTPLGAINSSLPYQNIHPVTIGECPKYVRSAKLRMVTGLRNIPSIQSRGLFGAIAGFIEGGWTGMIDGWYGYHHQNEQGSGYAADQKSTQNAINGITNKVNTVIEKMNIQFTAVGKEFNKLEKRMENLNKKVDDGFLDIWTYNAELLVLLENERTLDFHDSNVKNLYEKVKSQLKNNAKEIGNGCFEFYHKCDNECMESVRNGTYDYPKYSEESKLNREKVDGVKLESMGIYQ

human ADAMTS13 [3] = molecular target: T1, human ADAMTS13; assay: phage ELISA on ADAMTS13-coated plates (positive: >10-fold absorbance above background)

| Binder | % ADAMTS13 activity in presence of scFv inhibitor (no rabbit IgG) (human ADAMTS13 [1]) [%] | binding result [2] | binding result (human ADAMTS13 [3]) |
| --- | --- | --- | --- |
| scFv 1-420 (scFv, V domains shown) VH: QVQLVQSGAEVKKPGSSVKVSCKASGGAFTMYTINWVRQAPGRGLEWMGRIIPILGITDYAQKFQGRGTITADKSTSTAYLELSGLTSEDTAVYYCAREFSGGNYFDFWGQGTLVTVSS VL: ELELTQPPSVSISPGKTAKIFCGGNSIGRKSVHWYQQKPGQAPVLVVYDDSDRPSGIPERFSGSNSGNTATLTISRVEAGDEADYYCQVWDSSSDYVVFGGGTKLTVL | 0 | no binding | – |
| scFv 3-405 (scFv, V domains shown) VH: QVQLVQSGAEVKRPGSSVKVSCKASGNTFSNYHINWVRQAPGQGLQWMGGIIPILGRTNYAQNFQGRVTITTDESTNTAYMELTSLRSEDTAVYYCAREARDSFDFWGQGTMVTVSS VL: ELVLTQPPSVSVAPGKTARITCGENNIGSKSVHWYQQKPGQAPVLVIYYDTDRPSGIPARFSGSNSGNTATLTISRVEAGDEADYYCQVWDSSSDQRVFGGGTELTVL | – | no binding | binds |
| scFv 1-416 (scFv, V domains shown) VH: QVQLVQSGAEVKKPGSSVRVSCTASGSNFSSHTINWVRQAPGQGLEWMGKVIPVLDISKHAQTFLGRVIITADKSTSTAYLELSSLRSEDTAIYYCAMDSVYGNFDFWGQGTLVTVSS VL: ELVLTQPPSVSVSPGQTARITCSGDAFPKHYAYWYQQKPGQAPVLVIYKDTERPSGIPERFSGSSSGTTATLTISGVQAEDEADYYCQSTDSSDTWVFGAGTKVTVL | 20 | no binding | – |
| scFv 1-428 (scFv, V domains shown) VH: EVQLVQSGAEVKKPGSSVKVSCKASGSNFSSHTINWVRQAPGHGLEWMGKIIPVLDISKDAETFLGRVVITADKSTSTAYMELSSLRSEDTAIYYCAMDSVYGNFDFWGQGTLVTVSS VL: ELELTQPPSVSVSPGQTARITCSGDALPKQYAYWYQQKPGQAPVLVIYKDSERPSGIPERFSGSSSGTTVTLTISGVQAEDEADYYCQSADSSGTYEVFGGGTKLTVL | 7 | no binding | – |
| scFv 1-431 (scFv, V domains shown) VH: QVQLVQSGAEVKKFGSSVKVSCKASGGTFSSYTMSWVRQAPGQGLEWMGSFVPILERANYAQGFQGRVTFTADKSTSTAYMELGSLRSEDTAVYYCARDLGDFGDSWGQGTLVTVSS VL: ELELTQPPSVSVSPGQTARITCSGDALPKQYAYWYQQKPGQAPVLVIYKDSERPSGIPERFSGSSSGTTVTLTISGVQAEDEADYYCQSADSSGTYVFGGGTKLTVL | 19 | no binding | – |
